B1: Plasmodium falciparum HAP2 domain 3 (PfHAP2 D3 HisAvi), deglycosylated (domain or fragment)
chain: VSYGTITHITIPKDCSSNQTNSKECILVVHTWNNNKTIGANFSCHVLCVDKSTQQVATHISPISKINAHIDANKNYAFYFIIKFLINKKITSNCTAILKDADGRECSKLSFNLTSKETIN
B2: anti-PbHAP2 D3 mAb 6.14 (variable regions in AbVec-hIgG1 and AbVec-IgKappa) (antibody, V domains shown)
VH: EVQLVESGGGLVKPGGSLKLSCAASEFTFSDYGMHWVRQAPEKGLEWVASISSGSNSIYYSDTVKGRFTISRDNAKSILFLQMTSLRSEDTAMYYCSREAYFAMDYWGQGTSVTVSS
VL: DIQMTQSPSSLSAILGGKVTITCKASQDIHKYIAWYQHKPGKGPRLLIYYTSTLQPGIPSRFSGSGSGRDYSFSISNLEPEDVATYFCLQYDNLYTFGGGTKVEIE
notes: also called anti-PbHAP2 mAb 6.14; source: Expi293 cells, transient transfection (1:1 light and heavy chain plasmids), purified as the nanobody-Fcs (HiTrap PrismA)
B3: Pfs48/45 Domain 3 (domain or fragment)
chain: KVIHGCNFSSNVSSKHTFTDSLDISLVDDSAHISCNVHLSEPKYNHLVGLNCPGDIIPDCFFQVYQPESEELEPSNIVYLDSQINIGDIEYYEDAEGDDKIKLFGIVGSIPKTTSFTCICKKDKKSAYMTVTIDSA
notes: source: Sf21 cells (baculovirus), purified as PfHAP2 D3 (Ni-NTA, SEC)
B4: Plasmodium vivax HAP2 domain 3 (domain or fragment)
chain: VSTATITHITTPKNCSSNQSESKDCVLIVHTWNNSANVGSNFSCHVICTDKETGKIATHIGPISPVNAFIDANKNYAFYFIIKFLINKEIKTMCKAVLRDSNGKECSKEDFLLTSKE
notes: as for B3
B5: Plasmodium berghei HAP2 domain 3 (domain or fragment)
chain: VSIATITHVTIPNDCASNNSNSNECVLIIHVWNNSKFVGSNFSCSIACTNKETDQLASHINPIAPVRAFIGPNKNYAFYFIIKFLINKEITTLCKAIVKDSNGKECSIEEFELQSKESVH
notes: as for B3

Experiments:
Details in all cases: both partners purified
[1] = target: T1, WNbFc 333 (nanobody WNb 333 fused to hinge and Fc of human IgG1) (alpaca); experiment: BLI; affinity: nanobody-Fcs or antibodies (5 µg/ml) loaded on anti-human IgG Fc Capture (AHC) tips, two-fold dilution series of antigen; PBS pH 7.4, 0.1% BSA, 0.05% TWEEN-20, 25°C; 1:1 Langmuir model; mean of two experiments
T1 construct: also called WNb 333 nanobody-Fc; source: Expi293 cells, transient transfection, purified (HiTrap PrismA)

[2] = target: T2, WNbFc 335 (nanobody WNb 335 fused to hinge and Fc of human IgG1) (alpaca); experiment: as above
T2 construct: also called WNb 335 nanobody-Fc; source: Expi293 cells, transient transfection, purified (HiTrap PrismA)

[3] = target: T3, WNbFc 334 (nanobody WNb 334 fused to hinge and Fc of human IgG1) (alpaca); experiment: as above
T3 construct: also called WNb 334 nanobody-Fc; source: Expi293 cells, transient transfection, purified (HiTrap PrismA)

[4] = target: B1; experiment: as above
[5] = target: T1, WNbFc 333 (nanobody WNb 333 fused to …); experiment: ELISA
[6] = target: T2, WNbFc 335 (nanobody WNb 335 fused to …); experiment: ELISA
[7] = target: T3, WNbFc 334 (nanobody WNb 334 fused to …); experiment: ELISA
[8] = target: T1, WNbFc 333 (nanobody WNb 333 fused to …); experiment: BLI

Binder: B1
- Kd [1]: 15.8 nM
- Kd [2]: 50.8 nM
- Kd [3]: 26.1 nM

Binder: B2
- binding result [4]: no binding

Binder: B3
- binding result [5]: no binding (tested: 125 nM)
- binding result [6]: no binding (tested: 125 nM)
- binding result [7]: no binding (tested: 125 nM)

Binder: B4
- binding result [8]: binds

Binder: B5
- binding result [3]: binds
- binding result [8]: binds
